Source: US10808024B2, “Antibodies against immunocomplexes comprising cyanobacterial cyclic peptide hepatotoxins” (priority 2015, dated 2020)
Positions count from the first letter of the chain named. Entries after “also recorded” stand apart in the source; their conditions may differ.

B1: SA55D1: MC-LZ subgroup-specific anti-IC binder (antibody, V domains shown)
VH: EVQLLESGGGLVQPGGSLRLSCAASGFTFSSDVMHWVRQAPGKGLEWVSVISPYDGYTRYADSVKGRFTISRDNSKNTLYLQMNSLRAEDTAVYYCARHKGGYRRAYMDYWGQGTLVTVSS
VL: EIVLTQSPGTLSLSPGERATLSCRASQSVSSSALAWYQQKPGQAPRLLIYGASSRATGVPDRFSGSGSGTDFTLTISRLEPEDFAVYYCQQSYSYPWTFGQGTKVEIKRT
modifications: Clone SA55D1; DOMAIN (31)..(35) CDR1; DOMAIN (50)..(66) CDR2; DOMAIN (99)..(110) CDR3; DOMAIN (24)..(35) CDR1; DOMAIN (51)..(57) CDR2; DOMAIN (90)..(98) CDR3
B2: SA34G1: variant-specific anti-IC antibody, Nod-R (antibody, V domains shown)
VH: EVQLLESGGGLVQPGGSLRLSCAASGFTFSDYWMHWVRQAPGKGLEWVSEIIPYSGYTNYADSVKGRFTISRDNSKNTLYLQMNSLRAEDTAVYYCARETWGYPSFDYWGQGTLVTVSS
VL: B1 VL with A33N, Y93S, Y95T
modifications: Clone SA34G1; DOMAIN (31)..(35) CDR1; DOMAIN (50)..(66) CDR2; DOMAIN (99)..(108) CDR3; DOMAIN (24)..(35) CDR1; DOMAIN (51)..(57) CDR2; DOMAIN (90)..(98) CDR3
B3: SA58A12: XR subgroup-specific anti-IC antibody (antibody, V domains shown)
VH: EVQLLESGGGLVQPGGSLRLSCAASGFTFSNYGMHWVRQAPGKGLEWVSEIWPNNGTTNYADSVKGRFTISRDNSKNTLYLQMNSLRAEDTAVYYCARESGQWWYGVFDYWGQGTLVTVSS
VL: B1 VL with A33N, Y93S
modifications: Clone SA58A12; DOMAIN (31)..(35) CDR1; DOMAIN (50)..(65) CDR2; DOMAIN (98)..(110) CDR3; DOMAIN (24)..(35) CDR1; DOMAIN (51)..(57) CDR2; DOMAIN (90)..(98) CDR3
B4: SA41B5: variant-specific anti-IC antibody, MC-RR (antibody, V domains shown)
VH: EVQLLESGGGLVQPGGSLRLSCAASGFTFSSDVMHWVRQAPGKGLEWVSVINPYDGSTYYADSVKGRFTISRDNSKNTLYLQMNSLRAEDTAVYYCARAVAGQGGYFDYWGQGTLVTVSS
VL: B1 VL with A33N, Y93S, Y95L
modifications: Clone SA41B5; DOMAIN (31)..(35) CDR1; DOMAIN (50)..(66) CDR2; DOMAIN (99)..(109) CDR3; DOMAIN (24)..(35) CDR1; DOMAIN (51)..(57) CDR2; DOMAIN (90)..(98) CDR3
B5: SA32C11: variant-specific anti-IC antibody, Nod-R (antibody, V domains shown)
VH: B2 VH with I52N, P53T, Y54S, S55N, Y57N, N59Y, T100S, G102W, Y103P, P104Y
VL: B1 VL with A33N, Y93S, Y95L
modifications: Clone SA32C11; DOMAIN (31)..(35) CDR1; DOMAIN (50)..(66) CDR2; DOMAIN (99)..(108) CDR3; DOMAIN (24)..(35) CDR1; DOMAIN (51)..(57) CDR2; DOMAIN (90)..(98) CDR3
B6: SA44E11: anti-IC antibody recognizing immunocomplexes comprising MC-RR (antibody, V domains shown)
VH: EVQLLESGGGLVQPGGSLRLSCAASGFTFSDYYMHWVRQAPGKGLEWVSEISTYNGYTDYADSVKGRFTISRDNSKNTLYLQMNSLRAEDTAVYYCARGGEPGDDWGQGTLVTVSS
VL: B1 VL with S92Y, Y93S, Y95L
modifications: Clone SA44E11; DOMAIN (31)..(35) CDR1; DOMAIN (50)..(66) CDR2; DOMAIN (99)..(105) CDR3; DOMAIN (24)..(35) CDR1; DOMAIN (51)..(57) CDR2; DOMAIN (90)..(98) CDR3
B7: SA32F1: variant-specific anti-IC antibody, Nod-R (antibody, V domains shown)
VH: EVQLLESGGGLVQPGGSLRLSCAASGFTFSNYYMHWVRQAPGKGFEWVSSIITNGGETDYADSVKGRFTISRDNSKNTLYLQMNSLRAEDTAVYYCARLPVTRPYYAVFDYWGQGTLVTVSS
VL: B1 VL with Y93S
modifications: Clone SA32F1; DOMAIN (31)..(35) CDR1; DOMAIN (50)..(66) CDR2; DOMAIN (99)..(110) CDR3; DOMAIN (24)..(35) CDR1; DOMAIN (51)..(57) CDR2; DOMAIN (90)..(98) CDR3
B8: SA56B8: variant-specific anti-IC antibody, MC-LR (antibody, V domains shown)
VH: EVQLLESGGGLVQPGGSLRLSCAASGFTFSDYWMHWVRQAPGKGLEWVSYINPYGGYTDYADSVKGRFTISRDNSKNTLYLQMNSLRAEDTAVYYCARYVRRHFDYWGQGTLVTVSS
VL: B1 VL with A33Y, Y93S
modifications: Clone SA56B8; DOMAIN (31)..(35) CDR1; DOMAIN (50)..(66) CDR2; DOMAIN (99)..(106) CDR3; DOMAIN (24)..(35) CDR1; DOMAIN (51)..(57) CDR2; DOMAIN (90)..(98) CDR3
B9: SA57D4: subgroup-specific anti-IC antibody (antibody, V domains shown)
VH: EVQLLESGGGLVQPGGSLRLSCAASGFTFSGYGMHWVRQAPGKGLEWVSAISDLNGSTYYADSVKGRFTISRDNSKNTLYLQMNSLRAEDTAVYYCARNGWGDMDLWGQGTLVTVSS
VL: B1 VL with Y95L
modifications: Clone SA57D4; DOMAIN (31)..(35) CDR1; DOMAIN (50)..(66) CDR2; DOMAIN (99)..(106) CDR3; DOMAIN (24)..(35) CDR1; DOMAIN (51)..(57) CDR2; DOMAIN (90)..(98) CDR3
B10: SA56E7: variant-specific anti-IC antibody, MC-LR (antibody, V domains shown)
VH: EVQLLESGGGLVQPGGSLRLSCAASGFTFSRYYMHWVRQAPGKGLEWVSYIWPVDGETDYADSVKGRFTISRDNSKNTLYLQMNSLRAEDTAVYYCARYVYGNSVGRVFDYWGQGTLVTVSS
VL: B1 VL with A33N
modifications: Clone SA56E7; DOMAIN (31)..(35) CDR1; DOMAIN (50)..(66) CDR2; DOMAIN (99)..(111) CDR3; DOMAIN (24)..(35) CDR1; DOMAIN (51)..(57) CDR2; DOMAIN (90)..(98) CDR3
B11: SA51D12: variant-specific anti-IC antibody, MC-LR (antibody, V domains shown)
VH: EVQLLESGGGLVQPGGSLRLSCAASGFTFSSDVMHWVRQAPGKGLEWVSVISGYDGYTRYADSVKGRFTISRDNSKNTLYLQMNSLRAEDTAVYYCARGVPYLYGAYSFDYWGQGTLVTVSS
VL: EIVLTQSPGTLSLSPGERATLSCRASQSVSSSNLAWYQQKPGQAPRLLIYGASSRATGVPDRFSGSGSGTDFTLTISRLEPEDFAVYYCQQSSTPWTFGQGTKVEIKRT
modifications: Clone SA51D12; DOMAIN (31)..(35) CDR1; DOMAIN (50)..(66) CDR2; DOMAIN (99)..(111) CDR3; DOMAIN (24)..(35) CDR1; DOMAIN (51)..(57) CDR2; DOMAIN (90)..(98) CDR3

Tests used:
Assay type in all cases: binding
[1] = tested on: anti-Adda mAb-MC-LR immunocomplex
[2] = tested on: immunocomplex of CCPH variant and biotinylated anti-Adda mAb; test: Single-step non-competitive TR-IFMA with SA51D1 scFv-AP, toxin standards
[3] = tested on: immunocomplex of CCPH variant and biotinylated anti-Adda mAb; test: Quantitative lateral flow test with streptavidin up-converting nanoparticles
[4] = tested on: immunocomplexes of MC-XZ and Nod-R with anti-Adda mAb; test: Cross-reactivity profile of anti-IC binders by single-step non-competitive assay (FIG. 5); settings: toxin 0.1 to 60 μg/L
[5] = tested on: immunocomplexes of CCPH variants and anti-Adda mAb; test: Screening and cross-reactivity studies of anti-IC scFv-AP binders, specificity class
[6] = tested on: CCPH in unknown water samples, immunocomplex with anti-Adda mAb; test: Anti-IC immunoassay profiling of blinded water samples (Abraxis proficiency testing); settings: sample MC-TK8, MC-LR + MC-RR + MC-YR, 4 + 1 + 1 μg/l

Molecule	Specificity of anti-IC antibody (CCPH immunocomplexes recognized) [5]	also measured
MC-LR		Sensitivity (blank+3SD) [1]: below 0.3 μg/L
MC-LA		Sensitivity [2]: 0.05 µg/L
C/C=C1/C(=O)N[C@@H](C(=O)O)[C@H](C)C(=O)N[C@@H](CCCNC(=N)N)C(=O)N[C@@H](/C=C/C(C)=C/[C@H](C)[C@H](Cc2ccccc2)OC)[C@H](C)C(=O)N[C@@H](C(=O)O)CCC(=O)N1C [Nodularin, reference compound]		Signal-to-background ratio [3]: 38
B1	MC-LZ subgroup-specific	Specificity (cross-reactive pattern) [4]: specific towards MC-XZ, where X=L (Leu)
B2	recognize immunocomplexes comprising Nod-R	
B3	specific for a subgroup XR	Specificity (cross-reactive pattern) [4]: specific towards MC-XZ where Z=R (Arg) and also towards Nod-R
B4	recognize immunocomplexes comprising MC-RR; also recorded: MC-RR specific	Specific anti-IC assay result [6]: positive
B5	recognize immunocomplexes comprising Nod-R; also recorded: nodularin-R specific	Specificity (cross-reactive pattern) [4]: specificity only towards Nod-R; Recognition of nine CCPH variants in lateral flow test ([3]; each CCPH at 1 μg/l): Only Nodularin was recognized; Specific anti-IC assay result ([6]; listed as Nod5): not
B6	recognize immunocomplexes comprising MC-RR	
B7	recognize immunocomplexes comprising Nod-R	
B8	recognize immunocomplexes comprising MC-LR; also recorded: MC-LR specific	Signal (%) with MC-LW ([4]; MC-LW): below 20%; Specificity (cross-reactive pattern) [4]: MC-LR and MC-dmLR specific
B9	subgroup-specific	
B10	recognize immunocomplexes comprising MC-LR	
B11	recognize immunocomplexes comprising MC-LR; also recorded: MC-LR and MC-LZ specific	
